Source: patent US20240317884A1, “METHOD FOR ALLOWING IMMUNE CELLS INFILTRATION IN TUMORS” (Alethia Biotherapeutics Inc., priority 2021, published 2024)

Assays:
[1] = Phase I: plasma pharmacokinetics (non-compartmental analysis); type: in vivo, human; settings: for AUC0-t / Cmax / Thalf / Tmax: Cycle 2, plasma, first dose of cycle; for AUC0-t / Cmax / Thalf: mean; for Tmax: median
Excerpt: Plasma PK parameters for AB-16B5 were derived from the concentration-time profiles following the first dose of Cycle 1 and the first dose of Cycle 2 using a non-compartmental analysis (NCA) with Phoenix WinNonlin.

[2] = Non-clinical toxicity, weekly administration, monkeys; type: in vivo, Rhesus monkeys
Excerpt: Consequently, they were not considered to be toxicologically significant.

[3] = Phase I: detection of AB-16B5 in tumor biopsies; type: in vivo, human; settings: for Detection of AB-16B5 in Tumor Biopsies, Post-Treatment Biopsy: 12.0 mg/kg, after dosing on Cycle 2 Day 15
Excerpt: Tumor biopsies were collected during the standard dose escalation to investigate the presence of AB-16B5 within the tumor. A total of 4 pre-treatment and 5 post-treatment tumor biopsies were suitable for analysis. These post-treatment tumor biopsies were collected following dosing on Cycle 2 Day 15 (between Cycle 2 Day 15 and Cycle 2 Day 18). The biopsy sites were liver (n=2), lymph node (n=2), bladder, skin and vulva.

[4] = Non-clinical pharmacokinetics, single and repeat-dose, monkeys; type: in vivo; settings: Rhesus monkeys
Excerpt: (§1) There was an approximate 70% increase in systemic exposure following repeated dosing from Day 1 to Day 26 which is consistent with the elimination half-life of AB-16B5 and the dosing intervals. […] The sCLU concentrations were generally back to their baseline levels after 3 to 5 days. The concurrent decrease in sCLU concentrations immediately following dosing with AB-16B5 is consistent with an antigen-sink phenomenon.

[5] = Non-clinical pharmacokinetics, single and repeat-dose, rats; type: in vivo; settings: Sprague-Dawley rats; infusion
Excerpt: as §1

[6] = tested on: advanced solid malignancy; test: Phase I study AB-16B5-101: tumor response (RECIST); type: in vivo, human
[7] = Non-clinical toxicity, weekly administration, rats; type: in vivo, Sprague-Dawley rats
Excerpt: This finding most likely reflects a slight antigenic stimulation by AB-16B5 in these 2 regional lymph nodes.

[8] = RECIST-evaluable population (14 subjects), 1.5-12.0 mg/kg
[9] = Subject 001, Pancreatic, 1.5 mg/kg weekly IV, 2 cycles
[10] = Subject 003, Soft Tissue Sarcoma, 6.0 mg/kg weekly IV, 2 cycles
[11] = Subject 005, Prostate, 6.0 mg/kg weekly IV, 2 cycles
[12] = Subject 010, Colorectal, 12.0 mg/kg weekly IV, 4 cycles
[13] = Subject 012, Breast, 12.0 mg/kg weekly IV, 2 cycles
[14] = Subject 013, Prostate, 12.0 mg/kg weekly IV, 2 cycles
[15] = Subject 014, Vulvar Melanoma, 12.0 mg/kg weekly IV, 2 cycles

AB-16B5: humanized IgG2 monoclonal antibody targeting sCLU; light chain SEQ ID NO:11, heavy chain SEQ ID NO:12
AUC0-t ([1]; 9.0 mg/kg (N = 3)): 2,459,988 ng*h/mL
Cmax ([1]; 9.0 mg/kg (N = 3)): 163,840 ng/mL
Thalf ([1]; 9.0 mg/kg (N = 3)): 13.75 h
Tmax ([1]; 9.0 mg/kg (N = 3)): 1.08 h
AUC0-t ([1]; 12.0 mg/kg (N = 7)): 4,147,243 ng*h/mL
Cmax ([1]; 12.0 mg/kg (N = 7)): 230,268 ng/mL
Thalf ([1]; 12.0 mg/kg (N = 7)): 21.04 h
Tmax ([1]; 12.0 mg/kg (N = 7)): 1.04 h
increase of mean Cmax and AUC0-t (systemic exposure) with the dose ([1]; dose range of 3.0 to 12.0 mg/kg, Cycle 1 and Cycle 2): dose proportional
accumulation of AB-16B5 between Cycle 1 and Cycle 2 ([1]; weekly IV infusion): No significant accumulation
No Observable Adverse Effect Level (NOAEL) ([2]; Rhesus monkeys, weekly administration): 100 mg/kg/dose
signs of overt toxicity ([2]; rhesus monkey, in vivo): did not result in any signs of overt toxicity
hepatocellular vacuolation in the liver ([2]; rhesus monkey, in vivo, 100 mg/kg): 2 animals
presence of AB-16B5 in all pre-treatment tumor biopsies ([3]; 4 pre-treatment biopsies, baseline): negative
presence of AB-16B5 in all post-treatment tumor biopsies analyzed ([3]; 5 post-treatment biopsies): confirmed
Detection of AB-16B5 in Tumor Biopsies, Post-Treatment Biopsy ([3]; Subject 009, Lung, biopsy site Liver): Positive
Detection of AB-16B5 in Tumor Biopsies, Post-Treatment Biopsy ([3]; Subject 010, Colorectal, biopsy site Liver): Positive
Detection of AB-16B5 in Tumor Biopsies, Pre-Treatment Biopsy ([3]; Subject 011, Colorectal, biopsy site Lymph node, baseline): Negative
Detection of AB-16B5 in Tumor Biopsies, Post-Treatment Biopsy ([3]; Subject 012, Breast, biopsy site Skin): Positive
Detection of AB-16B5 in Tumor Biopsies, Pre-Treatment Biopsy ([3]; Subject 012, Breast, biopsy site Skin, baseline): Negative
Detection of AB-16B5 in Tumor Biopsies, Post-Treatment Biopsy ([3]; Subject 013, Prostate, biopsy site Bladder): Positive
Detection of AB-16B5 in Tumor Biopsies, Pre-Treatment Biopsy ([3]; Subject 014, Vulvar melanoma, biopsy site Vulva, baseline): Negative
Detection of AB-16B5 in Tumor Biopsies, Post-Treatment Biopsy ([3]; Subject 015, Ovarian, biopsy site Lymph node): Positive
Detection of AB-16B5 in Tumor Biopsies, Pre-Treatment Biopsy ([3]; Subject 015, Ovarian, biopsy site Lymph node, baseline): Negative
systemic exposure with increasing dose levels [4]: generally greater than dose proportional
drug accumulation in terms of Cmax ([4]; repeated dosing once or twice weekly): no evidence of drug accumulation
systemic exposure over 24 hours with increasing dose levels [5]: dose proportional manner
best overall response progressive disease (PD), number of subjects [6, 8]: 6 subjects
best overall response progressive disease (PD), share of subjects [6, 8]: 43%
best overall response stable disease (SD), number of subjects [6, 8]: 8 subjects
best overall response stable disease (SD), share of subjects [6, 8]: 57%
Best Overall Response [6, 9]: PD (progressive disease (PD))
Tumor Response at Last Assessment Non-Target Lesions [6, 9]: PD (New (progressive disease (PD))
Tumor Response at Last Assessment Target Lesions [6, 9]: PD (progressive disease (PD))
Tumor Response at Last Assessment Target Lesions ([6]; Subject 002, Endometrium, 3.0 mg/kg weekly IV, 4 cycles): PD (progressive disease (PD))
Best Overall Response [6, 10]: PD (progressive disease (PD))
Tumor Response at Last Assessment Non-Target Lesions [6, 10]: PD (New (progressive disease (PD))
Best Overall Response [6, 11]: PD (progressive disease (PD))
Tumor Response at Last Assessment Target Lesions [6, 11]: PD (progressive disease (PD))
Tumor Response at Last Assessment Non-Target Lesions ([6]; Subject 007, Gastric, 9.0 mg/kg weekly IV, 8 cycles): PD (New (progressive disease (PD))
Tumor Response at Last Assessment Non-Target Lesions ([6]; Subject 008, Thyroid, 9.0 mg/kg weekly IV, 4 cycles): PD (New (progressive disease (PD))
Tumor Response at Last Assessment Non-Target Lesions ([6]; Subject 009, Lung, 12.0 mg/kg weekly IV, 6 cycles): PD (New (progressive disease (PD))
Tumor Response at Last Assessment Non-Target Lesions [6, 12]: PD (New (progressive disease (PD))
Tumor Response at Last Assessment Target Lesions [6, 12]: PD (progressive disease (PD))
Best Overall Response [6, 13]: PD (progressive disease (PD))
Tumor Response at Last Assessment Non-Target Lesions [6, 13]: PD (progressive disease (PD))
Best Overall Response [6, 14]: PD (progressive disease (PD))
Tumor Response at Last Assessment Non-Target Lesions [6, 14]: PD (New (progressive disease (PD))
Best Overall Response [6, 15]: PD (progressive disease (PD))
Tumor Response at Last Assessment Non-Target Lesions [6, 15]: PD (New (progressive disease (PD))
Tumor Response at Last Assessment Non-Target Lesions ([6]; Subject 015, Ovarian Cancer, 12.0 mg/kg weekly IV, 4 cycles): PD (New (progressive disease (PD))
time on treatment with stable disease (SD) and clinical benefit ([6]; patient with advanced gastric cancer): 24 weeks
No Observable Adverse Effect Level (NOAEL) ([7]; Sprague-Dawley rats, weekly administration): 100 mg/kg/dose
incidence of minimal lymphoid hypercellularity, mandibular lymph node ([7]; rat, in vivo): 1/20
incidence of minimal lymphoid hypercellularity, mesenteric lymph node ([7]; rat, in vivo): 2/20
treatment-related clinical signs and changes (body weight, food consumption, ophthalmology, clinical pathology, organ weights) ([7]; rat, in vivo): did not result in any treatment-related clinical signs
